The RNAGym collection of RNA variant scans (doi:10.1093/molbev/msab373)

B1: Azoarcus group I ribozyme (parent)
chain: GUGCCUUGCGCCGGGAAACCACGCAAGGGAUGGUGUCAAAUUCGGCGAAACCUAAGCGCCCGCCCGGGCGUAUGGCAACGCCGAGCCAAGCUUCGGCGCCUGCGCCGAUGAAGGUGUAGAGACUAGACGGCACCCACCUAAGGCAAACGCUAUGGUGAAGGCAUAGUCCAGGGAGUGGCGAAAGUCACACAAACCGG

Variants of: B1
Test: reverse-splicing fitness (ratio to wild type); higher = more active; in vitro selection; Mg2+ level not given
In short: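 An in vitro group I ribozyme library with randomized positions was T7-transcribed and gel-purified. In triplicate, 10 pmol RNA in EPPS pH 7.5 was reacted with 50 pmoles of a 30-nt RNA substrate for 1 h at 37 °C across several added MgCl2 levels (1–48 mM), then stopped with EDTA. Products were reverse transcribed from a substrate-complementary primer, PCR-amplified and sequenced (HiSeq 4000). Fitness is a variant's read proportion after selection over that before, normalised to wild type.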

| Variant | reverse-splicing fitness |
| --- | --- |
| C82G A111U A120C C150G U176C | 0.009 |
| C82G A111U A120C C150G U176G | 0.00396 |
| C82G A111U A120G C150U C169G | 0.0112 |
| C82G A111U A120G C150U C169U | 0.0101 |
| C82G A111U A120G C150U C169A | 0.0112 |
| C82G A111U A120C C150U C169U U176C | 0.0139 |
| C82G A111U A120C C150U C169U U176A | 0.0146 |
| C82G A111U A120C C150U C169U U176G | 0.00768 |
| C82G A111U A120C C150A C169U U176G | 0.00816 |
| C82G A111U A120C C150A C169U U176A | 0.018 |
| C82G A111U A120C C150A C169U U176C | 0.0159 |
| C82G A111U A120G A145U C150U U176C | 0.0175 |
| C82G A111U A120G A145U C150U U176A | 0.0118 |
| C82G A111U A120G A145U C150U U176G | 0.00663 |
| C82G A111U A120G A145G C150U C169A | 0.0121 |
| C82G A111U A120G A145G C150U C169G | 0.0128 |
| C82G A111U A120G A145G C150U C169U | 0.0112 |
| C82G A111U A120G A145U C150U C169U U176A | 0.0188 |
| C82G A111U A120G A145U C150U C169U U176C | 0.0167 |
| C82G A111U A120G A145U C150U C169U U176G | 0.00486 |
| C82G A111U A120G A145U C169A U176A | 0.0133 |

| Variant | reverse-splicing fitness |
| --- | --- |
| C82G A111U A120G A145U C169A U176G | 0.00445 |
| C82G A111U A120G A145U C169A U176C | 0.0135 |
| C82G A111U A120G A145U C169U U176A | 0.0185 |
| C82G A111U A120G A145U C169U U176C | 0.0158 |
| C82G A111U A120G A145U C169U U176G | 0.00419 |
| C82G A111U A120C C150A C169A | 0.0127 |
| C82G A111U A120C C150A C169U | 0.0114 |
| C82G A111U A120C C150A C169G | 0.00894 |
| C82G A111U A120G A145G C150G U176C | 0.0109 |
| C82G A111U A120G A145G C150G U176G | 0.00601 |
| C82G A111U A120G A145G C150G U176A | 0.00727 |
| C82G A111U A120G A145G C150U C169A U176G | 0.00683 |
| C82G A111U A120G A145G C150U C169A U176A | 0.0158 |
| C82G A111U A120G A145G C150U C169A U176C | 0.0145 |
| C82G A111U A120G C169G U176A | 0.0187 |
| C82G A111U A120G C169G U176G | 0.00448 |
| C82G A111U A120G C169G U176C | 0.0225 |
| C82G A111U A120G A145C C150G U176G | 0.00342 |
| C82G A111U A120G A145C C150G U176C | 0.0105 |
| C82G A111U A120G A145C C150G U176A | 0.0058 |
| C82G A111U A120C A145U C169U U176C | 0.0158 |

| Variant | reverse-splicing fitness |
| --- | --- |
| C82G A111U A120C A145U C169U U176A | 0.0149 |
| C82G A111U A120C A145U C169U U176G | 0.00499 |
| C82G A111U A120G A145U C150U C169G U176A | 0.0145 |
| C82G A111U A120G A145U C150U C169G U176C | 0.017 |
| C82G A111U A120G A145U C150U C169G U176G | 0.00511 |
| C82G A111U A120G C169A U176A | 0.017 |
| C82G A111U A120G C169A U176C | 0.0215 |
| C82G A111U A120G C169A U176G | 0.00437 |
| C82G A111U A120C A145U U176G | 0.00709 |
| C82G A111U A120C A145U U176C | 0.0279 |
| C82G A111U A120C A145U U176A | 0.0204 |
| C82G A111U A120C A145U C169A U176A | 0.015 |
| C82G A111U A120C A145U C169A U176C | 0.0142 |
| C82G A111U A120C A145U C169A U176G | 0.00591 |
| C82G A111U A120G A145G C150A C169G U176C | 0.025 |
| C82G A111U A120G A145G C150A C169G U176G | 0.0053 |
| C82G A111U A120G A145G C150A C169G U176A | 0.0165 |
| C82G A111U A120G A145U C150U | 0.0139 |
| C82G A111U A120G A145U C150G | 0.00715 |
| C82G A111U A120G A145U C150A | 0.00819 |
| C82G A111U A120G C150U C169A U176A | 0.0173 |

| Variant | reverse-splicing fitness |
| --- | --- |
| C82G A111U A120G C150U C169A U176G | 0.00614 |
| C82G A111U A120G C150U C169A U176C | 0.0182 |
| C82G A111U A120C A145U C169G | 0.00981 |
| C82G A111U A120C A145U C169A | 0.00897 |
| C82G A111U A120C A145U C169U | 0.0143 |
| C82G A111U A120G A145C C150A U176G | 0.00582 |
| C82G A111U A120G A145C C150A U176C | 0.0103 |
| C82G A111U A120G A145C C150A U176A | 0.00962 |
| C82G A111U A120G A145U C150U C169A U176A | 0.0149 |
| C82G A111U A120G A145U C150U C169A U176G | 0.00501 |
| C82G A111U A120G A145U C150U C169A U176C | 0.0128 |
| C82G A111U A120C C169U | 0.0134 |
| C82G A111U A120C C169G | 0.00915 |
| C82G A111U A120C C169A | 0.00833 |
| C82G A111U A120G A145G C150U C169G U176A | 0.0137 |
| C82G A111U A120G A145G C150U C169G U176G | 0.00526 |
| C82G A111U A120G A145G C150U C169G U176C | 0.0192 |
| C82G A111U A120C C150U C169G U176G | 0.00625 |
| C82G A111U A120C C150U C169G U176A | 0.0159 |
| C82G A111U A120C C150U C169G U176C | 0.0194 |
